In patent publication EP4361176A1:
Where a chain is given by its changes, count along the chain named.

B1: 04H1654-KT473/04L1610-lam1//04H1656-HT482/04L1610-lam1 (antibody)
heavy 1: QVQLVESGGGVVQPGGSLRLSCAASGFTFSSKTMNWVRQAPGKGLEWVSSISTQSHYIYYARSVRGRFTISRDNAKNSLYLQMNSLRAEDTAVYYCARYGKREDMLWVFDYWGQGTLVTVSSASTKGPSVFPLAPSSKSTSGGTAALGCLVKDYFPEPVTVSWNSGALTSGVHTFPAVLQSSGLYSLSSVVTVPSSSLGTQTYICNVNHKPSNTKVDKRVEPKSCDKTHTCPPCPAPEFQWGPMVFLFPPKPKDVLMISRTPEVTCVVVDVSDEEPEVKFNWYVDGVEVHNAKTKPREEQYNATYRVVSVLPVLHQDWLNGKEYKCKVSNDALPAPIEKTISKAKGQPREPQVYTLPPSRKEMTKNQVSLTCLVKGFYPSDIAVEWESNGQPENNYKTTPPVLDSDGSFFLYSKLTVDKSRWQQGNVFSCSVMHEALHAHTTRKELSLSP
heavy 2: QVQLVESGGGVVQPGGSLRLSCAASGFTFSSKTMNWVRQAPGKGLEWVSSISTQSHYIYYAESVRGRFTISRDNAKNSLYLQMNSLRAEDTAVYYCARYGAREDMLWVFDYWGQGTLVTVSSASTKGPSVFPLAPSSKSTSGGTAALGCLVKDYFPEPVTVSWNSGALTSGVHTFPAVLQSSGLYSLSSVVTVPSSSLGTQTYICNVNHKPSNTKVDKRVEPKSCDKTHTCPPCPAPELLAGPSVFLFPPKPKDVLMISRTPEVTCVVVDVSHEEPEVKFNWYVDGVEVHNAKTKPREEQYNATYRVVSVLPVLHQDWLNGKEYKCKVSNDALPKPDEETISKAKGQPREPQVYTLPPSREEMTKNQVSLTCLVKGFYPSDIAVEWESNGQPENNYKTTPPVLDSDGSFFLYSKLTVDKSRWQQGNVFSCSVMHEALHAHTTREELSLSP
light: QSALTQPPSASGSPGQSVTISCEGPSTGVGDYNWVHWYQQHPGKAPKLMIYFTSKKPSGVPDRFSGSKSGNTASLTVSGLQAEDEADYYCQTYAAPLGPMFGGGTKLTVLGQPKAAPSVTLFPPSSEELQANKATLVCLISDFYPGAVTVAWKADSSPVKAGVETTTPSKQSNNKYAASSYLSLTPEQWKSHRSYSCQVTHEGSTVEKTVAPTECS
B2: 04H1654-KT481/04L1610-lam1//04H1656-HT498/04L1610-lam1 (antibody)
heavy 1: B1 heavy 1 with I337E
heavy 2: B1 heavy 2 with K335A, D337E
light: B1 light
B3: 04H1654-KT462/04L1612-lam1//04H1656-HT445/04L1612-lam1 (antibody, human IgG1, lambda)
heavy 1: B1 heavy 1 with A439N, T441Y, R443Q, E445S
heavy 2: B1 heavy 2 with A439N, T441Y, R443Q, E445S
light: B1 light with N33T, W34Y
B4: 04H1654-KT461/04L1612-lam1//04H1656-HT443/04L1612-lam1 (antibody, human IgG1, lambda)
heavy 1: B1 heavy 1 with I337E, A439N, T441Y, R443Q, E445S
heavy 2: B1 heavy 2 with K335A, D337E, A439N, T441Y, R443Q, E445S
light: B1 light with N33T, W34Y
B5: 04H1654-KT473/04L1612-lam1//04H1656-HT482/04L1612-lam1 (antibody)
heavy 1: B1 heavy 1
heavy 2: B1 heavy 2
light: B1 light with N33T, W34Y
B6: 04H1654-KT481/04L1612-lam1//04H1656-HT498/04L1612-lam1 (antibody)
heavy 1: B1 heavy 1 with I337E
heavy 2: B1 heavy 2 with K335A, D337E
light: B1 light with N33T, W34Y
B7: ABAM005 (antibody, human IgG1, V domains shown)
VH: EVQLVESGGDLVKPGGGLRLSCAASGFTFSGYTMNWVRQAPGKGLEWVSSISSRSNYISYADSVKGRFTISRDNAKNSLYLQMNSLRAEDTAVYYCARYGALNHMLWVFDYWGQGTLVTVSS
VL: QSALTQPPSASGSPGQTVTISCTGTSTDVGAYNYVSWYQQHPGKAPKLMIYSTSKRPSGVPDRFSGSKSGNTASLTVSGLQAEDEADYFCSLYRYAQGVVFGGGTKLTVL
B8: ABAM006 (antibody, human IgG1, V domains shown)
VH: EVQLVESGGDLVKPGGGLRLSCAASGFTFSTYTMHWVRQAPGKGLEWVSSISSRSGHAHYADSVKGRFTISRDNAKNSLYLQMNSLRAEDTAVYYCARFGRKKKRLWVFDYWGQGTLVTVSS
VL: B7 VL with A31F, S52Q, T53N, L92T, Y93N, Y95A, Q97R, G98S, V100A
B9: 04H1389-Ks462/04L1615-k0MT//04H1389-Hs445/04L1615-k0MT (antibody, human IgG1, kappa)
heavy 1: EVQLVESGGGLVKPGGSLRLSCAASGFTFSSKTMNWVRQAPGKGLEWVSSISTQSHYIYYAESVKGRFTISRDNAKNSLYLQMNSLRAEDTAVYYCARYGKREDMLWVFDYWGQGTLVTVSSASTKGPSVFPLAPSSKSTSGGTAALGCLVKDYFPEPVTVSWNSGALTSGVHTFPAVLQSSGLYSLSSVVTVPSSSLGTQTYICNVNHKPSNTKVDKRVEPKSCDKTHTCPPCPAPEFQWGPMVFLFPPKPKDVLMISRTPEVTCVVVDVSDEEPEVKFNWYVDGVEVHNAKTKPREEQYNATYRVVSVLPVLHQDWLNGKEYKCKVSNDALPAPIEKTISKAKGQPREPQVYTLPPSREEMTKNQVSLWCLVKGFYPSDIAVEWESNGQPENNYKTTPPVLDSDGSFFLYSKLTVDKSRWQQGNVFSCSVMHEALHNHYTQKSLSLSP
heavy 2: EVQLVESGGGLVKPGGSLRLSCAASGFTFSSKTMNWVRQAPGKGLEWVSSISTQSHYIYYAESVKGRFTISRDNAKNSLYLQMNSLRAEDTAVYYCARYGKREDMLWVFDYWGQGTLVTVSSASTKGPSVFPLAPSSKSTSGGTAALGCLVKDYFPEPVTVSWNSGALTSGVHTFPAVLQSSGLYSLSSVVTVPSSSLGTQTYICNVNHKPSNTKVDKRVEPKSCDKTHTCPPCPAPELLAGPSVFLFPPKPKDVLMISRTPEVTCVVVDVSHEEPEVKFNWYVDGVEVHNAKTKPREEQYNATYRVVSVLPVLHQDWLNGKEYKCKVSNDALPKPDEETISKAKGQPREPQVYTLPPSREEMTKNQVSLSCAVKGFYPSDIAVEWESNGQPENNYKTTPPVLDSDGSFFLVSKLTVDKSRWQQGNVFSCSVMHEALHNHYTQKSLSLSP
light: DIVMTQSPLSLPVTPGEPASISCQGPSTGVGDYNYVHWYQQKPGQAPRLLIYFTSKKPSGVPDRFSGSGSGTDFTLKISRVEAEDVGVYYCQTYAAPLGPMFGQGTKLEIKRTVAAPSVFIFPPSDEQLKSGTASVVCLLNNFYPREAKVQWKVDNALQSGNSQESVTEQDSKDSTYSLSSTLTLSKADYEKHKVYACEVTHQGLSSPVTKSFNRGEC
B10: 04H1389-Ks461/04L1615-k0MT//04H1389-Hs443/04L1615-k0MT (antibody, human IgG1, kappa)
heavy 1: B9 heavy 1 with I337E
heavy 2: B9 heavy 2 with K335A, D337E
light: B9 light
B11: 04H1389-Ks473/04L1615-k0MT//04H1389-Hs482/04L1615-k0MT (antibody)
heavy 1: B9 heavy 1 with N439A, Y441T, Q443R, S445E
heavy 2: B9 heavy 2 with N439A, Y441T, Q443R, S445E
light: B9 light
B12: 04H1389-Km462/04L1615-k0MT//04H1389-Hm445/04L1615-k0MT (antibody, human IgG1, kappa)
heavy 1: B9 heavy 1 with Y354C
heavy 2: B9 heavy 2 with E361C
light: B9 light
B13: 04H1389-Km461/04L1615-k0MT//04H1389-Hm443/04L1615-k0MT (antibody, human IgG1, kappa)
heavy 1: B9 heavy 1 with I337E, Y354C
heavy 2: B9 heavy 2 with K335A, D337E, E361C
light: B9 light
B14: 04H1389-Km481/04L1615-k0MT//04H1389-Hm498/04L1615-k0MT (antibody)
heavy 1: B9 heavy 1 with I337E, Y354C, N439A, Y441T, Q443R, S445E
heavy 2: B9 heavy 2 with K335A, D337E, E361C, N439A, Y441T, Q443R, S445E
light: B9 light
B15: 04H1389-G1m/04L1086-lam1 (antibody, human IgG1, lambda, V domains shown)
VH: EVQLVESGGGLVKPGGSLRLSCAASGFTFSSKTMNWVRQAPGKGLEWVSSISTQSHYIYYAESVKGRFTISRDNAKNSLYLQMNSLRAEDTAVYYCARYGKREDMLWVFDYWGQGTLVTVSS
VL: QSALTQPPSASGSPGQTVTISCDGPSTGVGDYNYVHWYQQHPGKAPKLMIYFTSKKPSGVPDRFSGSKSGNTASLTVSGLQAEDEADYFCQTYAAPLGPMFGGGTKLTVLG
B16: ABAM001 (antibody, human IgG1, V domains shown)
VH: B8 VH with T31S, G56R, H57Y, A58K, H59Y, R101I, K103N, L106N, F109L
VL: B7 VL with S52Q, T53V, R94T, Y95T, A96R, Q97P, G98Q, V99L, V100A
B17: ABAM002 (antibody, human IgG1, V domains shown)
VH: B7 VH with G31S, N56T, I58A, S59H, Y99F, A101G, L102R, N103G, M105L
VL: QSALTQPPSASGSPGQTVTISCTGTSTDVGTYNYVSWYQQHPGKAPKLMIYQGSKRPSGVPDRFSGSKSGNTASLTVSGLQAEDEADYFCSTVSGDFHVAFGGGTKLTVL
B18: ABAM003 (antibody, human IgG1, V domains shown)
VH: B7 VH with N35H, N56R, I58A, Y99F, A101I, L102K, M105L, L106N
VL: B17 VL with T27S, T31D, Q52G, G53V, G95T, D96S, F97H, H98S, V99P, A100V

The binders below were run against human FcγRIIb extracellular domain with C-terminal His-tag (human) (UniProt P31994) (assay: SPR (Biacore T200), FcγRIIb 1000 nM, amount bound per unit captured antibody).
Chain of human FcγRIIb extracellular domain with C-terminal His-tag (human) (P31994 43-217): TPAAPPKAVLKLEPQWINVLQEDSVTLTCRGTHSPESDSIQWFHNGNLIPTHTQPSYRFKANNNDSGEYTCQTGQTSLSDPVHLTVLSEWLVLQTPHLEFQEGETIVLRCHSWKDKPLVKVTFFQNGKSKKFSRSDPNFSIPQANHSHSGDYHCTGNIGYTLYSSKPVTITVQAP

Point of comparison: B5, Binding amount 0.026. Against it:
- B1 — the same, 0.026
- B2 — lower, 0.022
- B3 — higher, 0.028
- B4 — lower, 0.025
- B6 — lower, 0.022

The binders below were run against T1, hCTLA4-His-BAP (human) (assay: IgG ELISA, 2.5 ug/mL IgG, 1 mM AMP).
T1 sequence (chain, biotin on the BAP-tag): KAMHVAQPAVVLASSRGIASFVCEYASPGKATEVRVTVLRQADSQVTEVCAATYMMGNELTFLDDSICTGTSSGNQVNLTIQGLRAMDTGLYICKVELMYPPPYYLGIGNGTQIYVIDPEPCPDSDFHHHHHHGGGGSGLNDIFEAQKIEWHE

Point of comparison: B8, 450 nm Absorbance 3. Against it:
- B7 — lower, 0.303

What follows are binders tested against human FcγRIIb extracellular domain with C-terminal His-tag (human) (UniProt P31994) (assay: SPR; binding amount / that of 04H1389-G1m/04L1615-k0MT).

Point of comparison: B13, Relative binding amount 2.1. Against it:
- B9 — higher, 2.6
- B10 — the same, 2.1
- B11 — higher, 2.3
- B12 — higher, 2.6
- B14 — lower, 1.9

What follows are binders tested against human CTLA4 (soluble analyte of the Biacore assays of Reference Example 3-3) (human) (UniProt P16410) (assay: SPR Biacore T200, 10 uM ATP).

Binder B15 has a fold enhanced binding vs parent 04H1207-G1m/04L1086-lam1 of 10 fold.

Each binder was assayed against T1, hCTLA4-His-BAP (human) (assay: IgG ELISA, 2.5 ug/mL IgG, no AMP).

Point of comparison: B7, 450 nm Absorbance 0.069. Against it:
- B16 — higher, 3.46
- B8 — higher, 0.776
- B17 — higher, 0.139
- B18 — higher, 3.18

The binders below were run against human FcγRIIb extracellular domain with C-terminal His-tag (human) (UniProt P31994) (assay: SPR (Biacore T200), FcγRIIb, amount bound per unit captured antibody).

Point of comparison: B9, Binding amount 0.03. Against it:
- B10 — lower, 0.024
- B11 — lower, 0.026
- B12 — lower, 0.029
- B13 — lower, 0.024
- B14 — lower, 0.021

What follows are binders tested against human FcγRIIb extracellular domain with C-terminal His-tag (human) (UniProt P31994) (assay: SPR; binding amount / that of 04H1637-G1m/04L1610-lam1).

Point of comparison: B6, Relative binding amount 2.8. Against it:
- B1 — higher, 3.2
- B2 — lower, 2.7
- B3 — higher, 3.4
- B4 — higher, 3.1
- B5 — higher, 3.2

What follows are binders tested against T1, hCTLA4-His-BAP (human) (assay: IgG ELISA, 2.5 ug/mL IgG, 1 mM AMP; overflow set to 5.00).

B16 and B17 cannot be ordered by 450 nm Absorbance: > 5 for the first, > 5 for the second.

B18 was tested, and the 450 nm Absorbance was > 5.

The binders below were run against T1, hCTLA4-His-BAP (human) (assay: IgG ELISA, absorbance with / without AMP).

Point of comparison: B7, S/N 4.46. Against it:
- B16 — not separable, > 1.45
- B8 — lower, 3.86
- B17 — higher, > 36
- B18 — not separable, > 1.57
